Results on 19 sequences are retold here after the Immune Epitope Database (IEDB).

Among the targets are HLA-A*68:01; HLA-A*03:01; HLA-A*11:01; HLA-A*33:01; HLA-A*31:01.
What all share (test): IEDB peptide-MHC binding, purified MHC/competitive/radioactivity; filed as Kd, often an IC50 or EC50 that approximates it; ≥ and ≤ were set here for values at or beyond the usual limits of such assays
Setting [1] is: source organism: Vaccinia virus WR.
[2] abbreviates: source organism: Mammarenavirus machupoense.
[3] abbreviates: source organism: SARS coronavirus Tor2.
Setting [4] is: source organism: Lassa virus Josiah.
Setting [5] is: source organism: Lymphocytic choriomeningitis virus (strain Armstrong).

Broadly, the Kd is a measure of binding affinity in units of concentration. Consider EFLHYCNSY, for which the equilibrium dissociation constant (Kd) is at least 24.6 µM in the assay with HLA-A*68:01 (setting [1]); at least 78 µM with HLA-A*03:01 (setting [1]); at least 31.6 µM in the assay with HLA-A*11:01 (setting [1]); 6.03 µM with HLA-A*33:01 (setting [1]); at least 37.7 µM with HLA-A*31:01 (setting [1]).
Regarding DSVKSILKWH, the dissociation constant (Kd) was at least 70.1 µM with HLA-A*68:01 (setting [2]); at least 70 µM with HLA-A*03:01 (setting [2]); at least 69.7 µM with HLA-A*11:01 (setting [2]); at least 33.1 µM with HLA-A*33:01 (setting [2]); 2.65 µM with HLA-A*31:01 (setting [2]).
ASITPNNLNK: the Kd with HLA-A*68:01 (setting [1]) is 0.00694 µM; with HLA-A*03:01 (setting [1]) it was 0.00129 µM; with HLA-A*11:01 (setting [1]), 0.00111 µM; with HLA-A*33:01 (setting [1]), at least 29.8 µM; with HLA-A*31:01 (setting [1]), 0.0476 µM.
As for AAYYFMKFRR, the Kd is 0.0792 µM with HLA-A*68:01 (setting [3]); 3.05 µM in the assay with HLA-A*03:01 (setting [3]); 0.132 µM in the assay with HLA-A*11:01 (setting [3]); 0.277 µM with HLA-A*33:01 (setting [3]); 0.041 µM with HLA-A*31:01 (setting [3]).
For the sequence LSDENYLLK, the dissociation constant Kd was 13.5 µM in the assay with HLA-A*68:01 (setting [1]); 0.591 µM with HLA-A*03:01 (setting [1]); 0.00159 µM with HLA-A*11:01 (setting [1]); at least 66.1 µM in the assay with HLA-A*33:01 (setting [1]); 1.5 µM with HLA-A*31:01 (setting [1]).
As to GIADIRDKY, the Kd with HLA-A*68:01 (setting [1]) was 2.34 µM; with HLA-A*03:01 (setting [1]) it was at least 78 µM; with HLA-A*11:01 (setting [1]), 8.97 µM; with HLA-A*33:01 (setting [1]), at least 77.7 µM; with HLA-A*31:01 (setting [1]) it was at least 77.9 µM.
For NARGEDTQMR, in that order: 0.0162 µM, at least 41.4 µM, at least 69 µM, 2.12 µM and 1.77 µM.
For the sequence SLIDLQELGK, the dissociation constant (Kd) with HLA-A*68:01 (setting [3]) worked out at 0.0945 µM; in the assay with HLA-A*03:01 (setting [3]), 0.183 µM; with HLA-A*11:01 (setting [3]), 0.178 µM; with HLA-A*33:01 (setting [3]) it was 1.4 µM; with HLA-A*31:01 (setting [3]), 0.0759 µM.
Consider DAHKKNLYDH, for which the Kd in the assay with HLA-A*68:01 (setting [4]) is at least 70.1 µM; with HLA-A*03:01 (setting [4]) it was at least 70 µM; with HLA-A*11:01 (setting [4]) it was at least 69.7 µM; with HLA-A*33:01 (setting [4]) it was at least 70 µM; in the assay with HLA-A*31:01 (setting [4]) it was 3.43 µM.
For the sequence LIKFISDNK, the Kd amounted to 0.0011 µM in the assay with HLA-A*68:01 (setting [1]); 0.151 µM with HLA-A*03:01 (setting [1]); 0.222 µM with HLA-A*11:01 (setting [1]); 0.624 µM with HLA-A*33:01 (setting [1]); 0.12 µM with HLA-A*31:01 (setting [1]).
Taken in the same sequence, the figures for QTSVNTVVR were 0.0733 µM, at least 63.6 µM, 0.923 µM, 7.26 µM and 4.01 µM.
SLNSMYTRLR: the equilibrium dissociation constant (Kd) is 0.0812 µM with HLA-A*68:01 (setting [1]); 0.0472 µM with HLA-A*03:01 (setting [1]); 1.78 µM with HLA-A*11:01 (setting [1]); 0.000997 µM with HLA-A*33:01 (setting [1]); 0.000291 µM with HLA-A*31:01 (setting [1]).
On to SIENKHQRR, for which the Kd in the assay with HLA-A*68:01 (setting [1]) is 0.627 µM; with HLA-A*03:01 (setting [1]) it was at least 23.9 µM; in the assay with HLA-A*11:01 (setting [1]), 6.37 µM; with HLA-A*33:01 (setting [1]), 0.696 µM; in the assay with HLA-A*31:01 (setting [1]) it was 0.165 µM.
For VSLSAYIIR, in that order: 3.31 µM, 8.56 µM, 1.11 µM, 4 µM and 0.0402 µM.
Taken in the same sequence, the figures for SVLCVKKFY were 2.1 µM, 13.3 µM, 0.372 µM, 12.9 µM and 7.98 µM.
Turning to GIFVDTMSIY, the Kd is 3.38 µM with HLA-A*68:01 (setting [1]); 3.79 µM with HLA-A*03:01 (setting [1]); 0.815 µM with HLA-A*11:01 (setting [1]); at least 28.5 µM with HLA-A*33:01 (setting [1]); at least 70 µM in the assay with HLA-A*31:01 (setting [1]).
On to FVSLVKKNKK, for which the dissociation constant (Kd) with HLA-A*68:01 (setting [1]) was 0.0115 µM; with HLA-A*03:01 (setting [1]) it was 4.66 µM; in the assay with HLA-A*11:01 (setting [1]), 0.234 µM; with HLA-A*33:01 (setting [1]), 9.29 µM; with HLA-A*31:01 (setting [1]), 0.284 µM.
For LFKNLATSIY, in that order: 19.9 µM, at least 41.7 µM, at least 69.8 µM, at least 70 µM and at least 37.1 µM.
Regarding GNFSWFPHK, the dissociation constant (Kd) was determined as 1.83 µM with HLA-A*68:01 (setting [5]); 0.159 µM with HLA-A*03:01 (setting [5]); 0.0802 µM in the assay with HLA-A*11:01 (setting [5]); 6.31 µM in the assay with HLA-A*33:01 (setting [5]); 1.35 µM with HLA-A*31:01 (setting [5]).
